Patent EP4707393A1, “DOUBLE-STRANDED SIRNA, CONJUGATE THEREOF AND USE THEREOF” (CMS Research & Development Pte. Ltd., priority 2023, dated 2024)

Assays:
[1] = system: hPBMCs; test: Immunogenicity test in hPBMCs (IL-6 and TNF-α ELISA of supernatant); type: cell-based, human; details: 18-20 h
Summary of the method: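 siRNA conjugates, three-fold serially diluted in water then 10-fold in 1640 medium (5.0% water final), were added in duplicate to PBMCs at 1.6 × 10^6/mL and incubated 18-20 h at 37 °C. TNF-α and IL-6 in supernatant were measured by ELISA; LPS served as positive control.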

[2] = system: human LPA gene (Genbank number: NM_005577.4); test: Inhibitory activity against LPA mRNA, psiCHECK-2 dual-luciferase reporter vector in Huh7 cells; type: cell-based; details: Huh7 cells transfected with LPA_psiCHECK-2 plasmid, RNAiMAX transfection
Summary of the method: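 Huh7 cells transfected with psiCHECK-2 carrying human LPA, then treated next day with compounds (3 concentrations) delivered by RNAiMAX. Dual-Glo readout of firefly and Renilla luciferase per well. Percent inhibition calculated from the reporter ratio relative to the RNAiMAX control.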

Substance	IL-6 ([1]; donor 2 hPBMCs, 5 µg/mL) [pg/mL]	TNF alpha ([1]; donor 2 hPBMCs, 5 µg/mL) [pg/mL]	IL-6 ([1]; donor 2 hPBMCs, 15 µg/mL) [pg/mL]	TNF alpha ([1]; donor 2 hPBMCs, 15 µg/mL) [pg/mL]	IL-6 ([1]; donor 2 hPBMCs, 45 µg/mL) [pg/mL]	TNF alpha ([1]; donor 2 hPBMCs, 45 µg/mL) [pg/mL]	EC50 [2] [nM]	IL-6 ([1]; donor 1 hPBMCs, 5 µg/mL) [pg/mL]	TNF alpha ([1]; donor 1 hPBMCs, 5 µg/mL) [pg/mL]	IL-6 ([1]; donor 1 hPBMCs, 15 µg/mL) [pg/mL]	TNF alpha ([1]; donor 1 hPBMCs, 15 µg/mL) [pg/mL]	IL-6 ([1]; donor 1 hPBMCs, 45 µg/mL) [pg/mL]	TNF alpha ([1]; donor 1 hPBMCs, 45 µg/mL) [pg/mL]
Z46: siRNA conjugate: sense SEQ ID NO:43, ligand D01 at 3' end of sense strand, antisense SEQ ID NO:66 (sense CAGCCCCTTATTGTTANACGA; antisense TCTCGTATNACAATAAGGGGCTG; ligand D01 at sense 3' end; listed as RNA; modified_base 1: mod_base = OTHER; note = 2'-O-methylcytidine; modified_base 2: mod_base = OTHER; note = 2'-O-methyladenosine; modified_base 3: mod_base = OTHER; note = 2'-O-methylguanosine; modified_base 4..7: mod_base = OTHER; note = 2'-O-me; note = 2'-O-methyluridine; modified_base 4: mod_base = OTHER; note = 2'-fluorocytidine; modified_base 5: mod_base = OTHER; note = 2'-O-methylg)	15.0	8.1	88.8	22.8	9.3	10.2	0.31	–	–	–	–	–	–
Z42: siRNA conjugate: sense SEQ ID NO:49, ligand D01 at 3' end of sense strand, antisense SEQ ID NO:80 (sense CAGCCCCTTATTGTTATACGA; antisense NCGTATNACAATAAGGGGCNGTT; ligand D01 at sense 3' end; listed as RNA; modified_base 1: mod_base = OTHER; note = 2'-O-methylcytidine; modified_base 2: mod_base = OTHER; note = 2'-O-methyladenosine; modified_base 3: mod_base = OTHER; note = 2'-O-methylguanosine; modified_base 4..7: mod_base = OTHER; note = 2'-O-me; note = n is B33; note = 2'-deoxycytidine; modified_base 4: mod_base = OTHER; note = 2'-O-methyluridine; m)	–	–	–	–	–	–	0.31	1298.3	35.8	1406.8	34.8	1457.0	39.4
